Data set [1] deals with the molecule itself. Nature of the data set: native MS; 5 μM Ire1-LD sprayed from 100 mM ammonium acetate at pH 6.8; no substrate peptide.
Data set [2] concerns the molecule itself. Nature of the data set: MST; 0.5 μM FITC-labelled Ire1-LD titrated with unlabelled Ire1-LD; HMK buffer with 1 mM TCEP or 5 mM DTT; apparent dimerization constant (dimer to monomers); no substrate peptide.
Data set [3] deals with the molecule itself. Put plainly: co-sedimentation.
Data set [4] concerns the molecule itself. Nature of the data set: turbidity (OD at 400 nm).

Where a chain is given by its changes, count along the chain named. “And” between values parts separate entries of the source, which are not always exact repeats. Identical values can stand only once.

B1: human Ire1α luminal domain (aa 24–449), wild type (domain or fragment, UniProt O75460 24-449, looked up)
chain: STVTLPETLLFVSTLDGSLHAVSKRTGSIKWTLKEDPVLQVPTHVEEPAFLPDPNDGSLYTLGSKNNEGLTKLPFTIPELVQASPCRSSDGILYMGKKQDIWYVIDLLTGEKQQTLSSAFADSLCPSTSLLYLGRTEYTITMYDTKTRELRWNATYFDYAASLPEDDVDYKMSHFVSNGDGLVVTVDSESGDVLWIQNYASPVVAFYVWQREGLRKVMHINVAVETLRYLTFMSGEVGRITKWKYPFPKETEAKSKLTPTLYVGKYSTSLYASPSMVHEGVAVVPRGSTLPLLEGPQTDGVTIGDKGECVITPSTDVKFDPGLKSKNKLNYLRNYWLLIGHHETPLSASTKMLERFPNNLPKHRENVIPADSEKKSFEEVINLVDQTSENAPTTVSRDVEEKPAHAPARPEAPVDSMLKDMATIIL
modifications: FITC-labelled for the copy held at fixed concentration in MST and for fluorescence polarisation; unlabelled elsewhere
notes: human Ire1α luminal domain (Ire1-LD), aa 24-449 of UniProt O75460; Cloned into the pET His6 TEV LIC vector (Addgene 29653); 15N- or 13C,15N-labelled for NMR; also called Ire1-LD; WT Ire1-LD; source: E. coli BL21 (DE3), purified (HisTrap HP nickel column, dialysis)
With B1, the stoichiometry N (in general, a count of units in the complex or per binding partner) in data set [1] is 2 and 4. In data set [2], the Kd was 500 ± 170 nM.

B2: human Ire1α luminal domain (aa 24–449), 315LL316 to DA variant (domain or fragment, UniProt O75460 24-449, looked up)
chain: B1 chain with L292D, L293A
notes: human Ire1α luminal domain (Ire1-LD), aa 24-449 of UniProt O75460, with LL 315-316 replaced by DA; source: E. coli BL21 (DE3), purified (HisTrap HP nickel column)
Regarding B2, the binding result in data set [3] is listed as “binds”.

B3: human Ire1α luminal domain (aa 24–449), 359WLLI362 to GSSG variant (domain or fragment, UniProt O75460 24-449, looked up)
chain: B1 chain with W336G, L337S, L338S, I339G
notes: human Ire1α luminal domain (Ire1-LD), aa 24-449 of UniProt O75460, with WLLI 359-362 replaced by GSSG at the oligomerisation interface; Methods and one legend print 358WLLI362; also called 358WLLI362 to GSSG; source: E. coli BL21 (DE3), expressed overnight at 20°C, purified (HisTrap HP nickel column)
Take B3: in data set [4], the binding result is recorded as “binds”.
